Data published in the DeepSol protein solubility set.

assay: soluble on expression in E. coli; label from the status in PepcDB or PDB records

Row | Sequence | soluble on expression in E. coli
1 | MSKLKIAVSDSCPDCFTTQRECIYINESRNIDVAAIVLSLNDVTCGKLDEIDATGYGIPVFIATENQERVPAEYLPRISGVFENCESRREFYGRQLETAASHYETQLRPPFFRALVDYVNQGNSAFDCPGHQGGEFFRRHPAGNQFVEYFGEALFRADLCNADVAMGDLLIHEGAPCIAQQHAAKVFNADKTYFVLNGTSSSNKVVLNALLTPGDLVLFDRNNHKSNHHGALLQAGATPVYLETARNPYGFIGGIDAHCFEESYLRELIAEVAPQRAKEARPFRLAVIQLGTYDGTIYNARQVVDKIGHLCDYILFDSAWVGYEQFIPMMADCSPLLLDLNENDPGILVTQSVHKQQAGFSQTSQIHKKDSHIKGQQRYVPHKRMNNAFMMHASTSPFYPLFAALNINAKMHEGVSGRNMWMDCVVNGINARKLILDNCQHIRPFVPELVDGKPWQSYETAQIAVDLRFFQFVPGEHWHSFEGYAENQYFVDPCKLLLTTPGIDARNGEYEAFGVPATILANFLRENGVVPEKCDLNSILFLLTPAEDMAKLQQLVALLVRFEKLLESDAPLAEVLPSIYKQHEERYAGYTLRQLCQEMHDLYARHNVKQLQKEMFRKEHFPRVSMNPQEANYAYLRGEVELVRLPDAEGRIAAEGALPYPPGVLCVVPGEIWGGAVLRYFSALEEGINLLPGFAPELQGVYIEEHDGRKQVWCYVIKPRDAQSTLLKGEKL | soluble
2 | MSKPKYNRVVLKLSGEALAGEQGFGINPAVIKSVAEQVKEIAELDVEVAVVVGGGNIWRGKIGSEMGMDRAGADYMGMLATVMNSLALQDSLENIGIQTRVQTSIEMRQVAEPYIRRKAVRHLEKKRVVIFAAGTGNPYFSTDTTAALRAAEIEADVILMAKNNVDGVYNADPSIDPTATKYETLTYLDVLKEGLGVMDSTASSLCMDNDIPLIVFSVMEKGNIKRAVLGENIGTVVRGKLEHHHHHH | not soluble
3 | MSKSSNSDSQKSLPSPGHPSTGRPDLDLITDPLEEQRLEPQRDSHRSDTRGHPSTGRKSHNSTSAQSSVYNSRTDPENAAMDSDEELRKMMEGFVDDEESDPTYEPP | soluble
4 | MSKTLKIAIDAGHGPQTPGKRCPDDSMREFHFNSVVARYVRDGLAQYEGVQTMFTHADDGSRDVPLQERTDRANAWGADVFVSIHANASGNGWSDARGIETYVYTTRPAQAVKLAEAVQRNLIKETGLKDRGVKAENFHVLRETKMTAILCECGFMTNREEAELLKSDAYRRKCAKAIVAGIAEVYDLTLKQQAHASEPTYSGKFKDVPDGHYAKGATERLAEKGIMNGIGNGLFGFGKPITREDAAVIVDRAITYLEQKISQK | not soluble
5 | MSKTTLVERCYKYIMSNEKNWSPYTVINRKSWVKNYIEPFFKDTKLIDINPVLIQTFINTTFNNCTFSSSKIRYRFISSVLKEAYRLREINENPCDFVKLPLEHHHHHH | soluble
6 | MSKVKIELFTSPMCPHCPAAKRVVEEVANEMPDAVEVEYINVMENPQKAMEYGIMAVPTIVINGDVEFIGAPTKEALVEAIKKRL | soluble
7 | MSKYKTILQSNKDELHSLYEIANQDSWKPIYHIHPPFGLMNDPNGVSYYNDEYHVFYQWYPFGPIHGMKHWGHVRSKDLINWERMPVAIIPTESYESHGAYSGSAIVKDGLLHLLYTGNIKKPDDSRDAKQCMASMDSQYTMTKYSNNPVIDIIPDGYTKHVRDPKVWKHNDMYYMLLGAQRENKTGTLLLYKSQDLYNWHFQGEITTNLKEFGFMWECPDYFQLSGKDVLLFSPQGIEKDGENFHNVYNVVYAIGHFDIKNLYFHVDSYYEADKGFDFYAPQTLEDSTSRRLLFAWAGSSEITYPSDDYMWAHCLTLPRELTLEDNILKQKPVSELTKLRTTKKDISGDITAGLNVLSTLDDEDSYELIVTLKTEDAKRFGLSLFHNEEECFPITFNREQGTISIDRGNFYHQFGGEYGFERCKKIDIQDTIELQIFVDKSIVEIFLYDGSTVFTSRVFPRKDMKHHIAIFSDAKLNFTITQYKLKRGIVLEHHHHHH | soluble
8 | MSLAAELFATRPDTHARERPEAVALIDRDRPVTHAALRAGVLDLAGGLAALGVCRGERVALWLPNCAHWVTMFLACARLGALTLAVNTRFRAQELGDILGRGQADWLVYWPGFKGIDFAGILAAVPPAARARLRGAIVVDGSGAQATPGPAGLAAHALAALHGPAPLPAPNAGVLCFTTSGTTSLPKFVLHDQDTLLRHGDAIARSYGYDDDSRILASAPFCGAFGFATLVGALARGVPVICEPAFDAARSVAAVRRHRVTHTYANNEALVQMFRLGERADFATARLFGFASFAPALGDLLPLARAQGVPLTGLYGSSELIALVAAQPREPADGDVSVRYEPGGALIHPEARVRARDPQDGRILADGESGEIEILAPSLMRGYLDNPQASAGALTDDGYFRTGDLGYTLGTRQFVFQTRMGDSLRLSGFLVNPAEIEQAVEALPGIRACQVVGATRDGKTVPYAFVLLDAGASPDPPGWMAACRQGMAGFKVPAGFQVLEAFPVVESANSAKIQKHKLREQAEALLAAAEGHHHHHH | not soluble
9 | MSLAAELLIATGEYAPWTGEQLPDGGYVNRVVREAFAREGVQVRFAYMPWARALEALRNGNAQASSFWYDDPVKAKEFLYSAPISEHRELLFHRKDVTVPPWRKLRDLRGLRFGATHGYTYTAEFRQLMKQGALNVEEANDDKINLLKMLAGRIELFPLDEFTGWQLLTSDAFPRGAHDLVTTEARPFSIQYGHLLMPRSARNEQLMARFNAGLARLRADGTLERFRLDLYRGSGMGEGHHHHHH | soluble
10 | MSLAAFQIANKTVGKDAPVFIIAEAGINHDGKLDQAFALIDAAAEAGADAVKFQMFQADRMYQKDPGLYKTAAGKDVSIFSLVQSMEMPAEWILPLLDYCREKQVIFLSTVCDEGSADLLQSTSPSAFKIASYEINHLPLLKYVARLNRPMIFSTAGAEISDVHEAWRTIRAEGNNQIAIMHCVAKYPAPPEYSNLSVIPMLAAAFPEAVIGFSDHSEHPTEAPCAAVRLGAKLIEKHFTIDKNLPGADHSFALNPDELKEMVDGIRKTEAELKQGITKPVSEKLLGSSYKTTTAIEGEIRNFAYRGIFTTAPIQKGEAFSEDNIAVLRPGQKPQGLHPRFFELLTSGVRAVRDIPADTGIVWDDILLKDSPFHEEGGSHHHHHH | soluble
11 | MSLAAHWEIAVKNSSRSAVDPFIVMDVMEAARRAEEAGRRIIHMEVGQPGTGAPRGAVEALAKSLETDALGYTVALGLPALRQRIARLYGEWYGVDLDPGRVVITPGSSGGFLLAFTALFDSGDRVGIGAPGYPSYRQILRALGLVPVDLPTAPENRLQPVPADFAGLDLAGLMVASPANPTGTMLDHAAMGALIEAAQAQGASFISDEIYHGIEYEAKAVTALELTDECYVINSFSKYFSMTGWRVGWMVVPEDQVRVVERIAQNMFICAPHASQVAALAALDCDAELQANLDVYKANRKLMLERLPKAGFTRIAPPDGAFYVYADVSDLTDDSRAFAAEILEKAGVAVTPGLDFDPERGAGTLRFSYARATADIEEGLDRLEAFMQARGEGHHHHHH | soluble
12 | MSLAAIDKTTVATVNGEKITLGEVDSHLKGVFAQMKSQYGDKYMDDPQVAQQILQQRQSVVQGLVTDKVLGIEADKLGIKPSEEEIKKKVDEQFENIKKGMGDNFDKALEAEGYTEDTFKDVIKNQVINQAVQDYIIKDVKVTDEDAQKYYDENKQQFVAKDSGVLTKHLLFENEEEAQKAYDEIQSGKTTFNDLFTKYENNKSENKKPIAENLGVVPAENSGLVQEFVDGLKPLKEGEISKPIKTQFGYHIIQAGATYEKGAQLPFDDVKSQIIQILKQQKDSEKFKADMDQWKKDLNVKVYDDKLQEGLKISEGHHHHHH | soluble
13 | MSLAAVFPLADFRRAGFDRAGESDAWKDSIIKGDCVAALDALPSQSVDAIFADPPYNLQLGGTLHRPDQSLVDAVDDEWDQFASFDAYDAFTRAWLLACRRVLKPNGTIWVIGSYHNIFRVGAMLQNLDFWILNDIVWRKTNPMPNFKGRRFQNAHETMIWASRDPKAKSYTFNYDALKASNDDVQMRSDWLFPICSGHERLKGDDGKKVHPTQKPEALLARIIMASTKPGDIVLDPFFGSGTTGAVAKRLGRHFVGIEREQDYIDAASARITAVEPLGKAELTVMTGKKAEPRVAFNTLVESGLVRPGQVLTDARRRYSAIIRADGTLASGGTAGSIHRLGAKVQGLDACNGWTFWHFEDGDALKPIDDLRTIIRSEMAKAEGHHHHHH | soluble
14 | MSLADRLTIGEFSRITHLSIRMLRRYHEQDLLVPAEVDPDTGYRYYSPAQIRPALTVRRFRDLDLPLADLRRFLAAESADGPDDGTAQQVVAAHLRRLEDRLGRTQRAVEVLRELLDPEAEREGHHHHHH | not soluble
15 | MSLAEFIYTMKKVRKAHGDKVILDDVTLSFYPGAKIGVVGPNGAGKSSVLRIMAGLDKPNNGDAFLATGATVGILQQEPPLNEDKTVRGNVEEGMGDIKIKLDRFNEVAELMATDYTDELMEEMGRLQEELDHADAWDLDAQLEQAMDALRCPPADEPVTNLSGGERRRVALCKLLLSKPDLLLLDEPTNHLDAESVQWLEQHLASYPGAILAVTHDRYFLDNVAEWILELDRGRAYPYEGNYSTYLEKKAERLAVQGRKDAKLQKRLTEELAWVRSGAKARQAKSKARLQRYEEMAAEAEKTRKLDFEEIQIPVGPRLGNVVVEVDHLDKGYDGRALIKDLSFSLPRNGIVGVIGPNGVGKTTLFKTIVGLETPDSGSVKVGETVKLSYVDQARAGIDPRKTVWEVVSDGLDYIQVGQTEVPSRAYVSAFGFKGPDQQKPAGVLSGGERNRLNLALTLKQGGNLILLDEPTNDLDVETLGSLENALLNFPGCAVVISHDRWFLDRTCTHILAWEGDDDNEGHHHHHH | not soluble
16 | MSLAEGYQSEADLERELIDDLRRQGYEFLPAIKTPEAMLANVRVQLQALNDVQFSDGEWARFVETWLDKPSDGIVEKTRKIHDDYIHDFVFDDGRIQNIHLVDKKTLVRNKVQVIRQFVTTPALCATPPREGNFSGGEQLWDQFPSFGGVPVGRGGYNRYDVTILVNGLPLVQVELKRRGVAIREAFNQVHRYSKESFNSAHSLFKYLQLFVISNGTDTRYFANTTRRDKNSFDFTMHWAKADNTPIRDLKDFAATFFQKHTLLSVLLHYSVFDVSNTLLVMRPYQIAATERILWKIKSSHQAKTWSTPEGGGYIWHTTGSGKTLTSFKAARLGTELDFIDKVFFVVDRKDLDYQTMKEYQRFSPDSVNGSDSTAGLKRNLEKDDNRIIVTTIQKLNNLMKSEPDLPIYHKQVVFIFDECHRSQFGEAQKNLRKKFKRYLQFGFTGTPIFPENALGAETTASVFGRELHSYVITDAIRDEKVLKFKVDYNDVRPRFKAIETERDEKKLSAAENRQALLHPERIREITQYILTHYRQKTHRLQPGAKGFNALFAVSSVEAAKLYYEAFKTQQKDSAKPLKVATIFSYAANEAQDAVGDIADEGFEVSALNSSAKEFLNAAIADYNALFKTNFSVDSQGFQNYYRDLAKRVKGTDDSGKRLPADEQVDLLIVVGMFLTGFDAPTLNTLFVDKNLRYHGLLQAYSRTNRIFDATKTFGNIVTFRDLEQATIDAITLFGDKNTRNVVLEKSYREYMEGYTDALTGQARRGFVEVVQELQARFPDPAALEKEADKKAFVRLFGEYLRAENVLQNFDEFAALKALQSVNTGDPAAVEAFKAQHYLSDEDLAALQAIKLPPERTMQDYRSTYNDIRDWLRREQAGVEKEKSTIDWDDVVFEVDLLKSQEINLDYILELIFERNKETRSKAELVEEVRRVIRASLGHRAKESLVVDFINQTDLEQLAEGHHHHHH | soluble
